Laboratory results taken from US20260274981A1 (VIB VZW, published 2026).

What was measured:
[1] = molecular target: T1, recombinant human TfR (2474-TR, R&D Systems), biotinylated (human, UniProt P02786 89-760, biotinylated with EZ-Link NHS-PEG4-Biotinylation Kit); experiment: SPR (Biacore T200), biotinylated human TfR captured on SA chip, VHH as analyte, single cycle kinetics
T1 construct: Bought protein; also called immobilized recombinant human TfR; biotinylated human TfR
Description: (§1) Phage libraries generated after 4 biweekly immunizations of two different camelids, underwent two rounds of pannings on CHO cell lines overexpressing either cynomolgus TfR in the first round or human TfR in the second round. Output libraries were screened with flow cytometry to find binders to human TfR overexpressing cells (FIG. 1A). […] Binding kinetics to recombinant human and cynomolgus TfR were further characterized with Surface Plasmon Resonance (SPR).
(§2) Surface Plasmon Resonance (SPR) was used to measure the interaction between VHHs and human or cynomolgus TfR receptor. Human TfR (2474-TR, R&D Systems) and cynomolgus TfR (90253-C07H, Sino Biological) were biotinylated with the EZ-Link NHS-PEG4-Biotinylation Kit (ThermoFischer Scientific) according to the manufacturer instructions. The binding experiments were performed at 25° C. on a Biacore T200 instrument (Cytiva, Uppsala, Sweden) in HBS-EP+ buffer (10 mM HEPES, 150 mM NaCl, 3 mM EDTA and 0.05% v/v Surfactant P20). Biotinylated human TfR and cynomolgus TfR were captured on a SA sensor chip (Cytiva) at a density of around 250 RU. Increasing concentrations of VHHs were sequentially injected in one single cycle at a flow rate of 30 μl/min. The dissociation was monitored for 20 min. […] A reference flow was used as a control for non-specific binding and refractive index changes. Several buffer blanks were used for double referencing. […]

[2] = molecular target: T2, recombinant cynomolgus TfR (90253-C07H, Sino Biological), biotinylated (cynomolgus monkey, UniProt Q5RDH6 89-760 (Pongo abelii entry), biotinylated with EZ-Link NHS-PEG4-Biotinylation Kit); experiment: SPR (Biacore T200), biotinylated cynomolgus TfR captured on SA chip, VHH as analyte, single cycle kinetics
T2 construct: Bought protein; also called immobilized recombinant cynomolgus TfR
T2 chain: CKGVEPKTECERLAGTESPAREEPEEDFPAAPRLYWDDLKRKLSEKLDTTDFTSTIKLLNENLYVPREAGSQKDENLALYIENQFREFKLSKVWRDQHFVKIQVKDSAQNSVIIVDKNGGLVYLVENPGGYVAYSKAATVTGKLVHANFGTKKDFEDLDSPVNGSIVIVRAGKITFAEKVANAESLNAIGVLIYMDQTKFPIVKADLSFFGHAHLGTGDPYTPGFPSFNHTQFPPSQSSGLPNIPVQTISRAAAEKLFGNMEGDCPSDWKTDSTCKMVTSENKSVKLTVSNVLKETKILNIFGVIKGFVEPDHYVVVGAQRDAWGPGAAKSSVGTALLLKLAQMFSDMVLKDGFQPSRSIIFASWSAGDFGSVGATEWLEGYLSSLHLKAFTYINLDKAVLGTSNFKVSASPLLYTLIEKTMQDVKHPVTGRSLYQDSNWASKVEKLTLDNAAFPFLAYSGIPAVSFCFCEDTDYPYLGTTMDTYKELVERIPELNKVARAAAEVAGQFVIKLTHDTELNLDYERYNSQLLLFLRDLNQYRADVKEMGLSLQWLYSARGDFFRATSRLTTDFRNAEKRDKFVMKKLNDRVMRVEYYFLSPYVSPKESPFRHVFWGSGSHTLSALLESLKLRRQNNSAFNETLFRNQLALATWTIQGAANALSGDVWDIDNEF
Description: as §1, §2

[3] = molecular target: T1, recombinant human TfR (2474-TR, R&D …); experiment: SPR (Biacore T200), biotinylated human TfR captured on an SA chip as ligand, VHH as analyte, single cycle kinetics, 1:1 binding model
Description: as §1
Surface Plasmon Resonance (SPR) was used to measure the interaction between VHHs and human or cynomolgus TfR receptor. Human TfR (2474-TR, R&D Systems) and cynomolgus TfR (90253-C07H, Sino Biological) were biotinylated with the EZ-Link NHS-PEG4-Biotinylation Kit (ThermoFischer Scientific) according to the manufacturer instructions. The binding experiments were performed at 25° C. on a Biacore T200 instrument (Cytiva, Uppsala, Sweden) in HBS-EP+ buffer (10 mM HEPES, 150 mM NaCl, 3 mM EDTA and 0.05% v/v Surfactant P20). Biotinylated human TfR and cynomolgus TfR were captured on a SA sensor chip (Cytiva) at a density of around 250 RU. Increasing concentrations of VHHs were sequentially injected in one single cycle at a flow rate of 30 μl/min. The dissociation was monitored for 20 min. […] A reference flow was used as a control for non-specific binding and refractive index changes. Several buffer blanks were used for double referencing. Binding affinities (KD) and kinetic rate constants (kₒₙ, koff) were derived after fitting the experimental data to the 1:1 binding model with the Biacore T200 Evaluation Software 3.1 using the single cycle kinetic procedure. Each interaction was repeated a least three times.

[4] = molecular target: T3, human TfR overexpressed on CHO cells (human, UniProt P02786 1-760); experiment: flow cytometry on CHO cells overexpressing human TfR (CHO-hTfR), VHH detected with anti-FLAG-iFluor647; median Flag-i647 intensity in total GFP cells
T3 construct: construct is TfR followed by an HA tag and IRES-GFP; also called hTfR; human transferrin receptor
Experimental: (§3) Output libraries were screened with flow cytometry to find binders to human TfR overexpressing cells (FIG. 1A). […] Binding kinetics to recombinant human and cynomolgus TfR were further characterized with Surface Plasmon Resonance (SPR).
(§4) Periplasmic extracts diluted 1:10 in PBS 2% FBS, or a dilution range of different VHH or bispecific antibody concentrations prepared in PBS 2% FBS, were incubated with 0.1 million CHO cells overexpressing either the human, cynomolgus or mouse TfR for 30 min at 4° C. As control for background binding, periplasmic extracts, VHHs or bispecific antibodies were also incubated with 0.1 million CHO cells overexpressing GFP. Binding of VHHs was next resolved by a second step 30 min incubation at 4° C. with an anti-FLAG-iFluor647 antibody (A01811, Genscript) diluted 1:500 for screening and 1:250 for validation assays, or with anti-human IgG Fc-Alexa Fluor647 antibody (410714, BioLegend) diluted 1:200. […] Cells were fixed with 4% paraformaldehyde before being analyzed. Flp-In™-CHO™ cells used as unstained control and single stain controls were used to determine the cut-off point between background fluorescence and positive populations. […] The data was acquired with an Attune Nxt flow cytometer (Invitrogen) and analyzed by FCS Express 7 Research Edition.

[5] = molecular target: T4, mouse TfR overexpressed on CHO cells (mouse, UniProt Q62351 1-763); experiment: flow cytometry on CHO cells overexpressing mouse TfR (CHO-mTfR), VHH detected with anti-FLAG-iFluor647; median Flag-i647 intensity in total GFP cells
T4 construct: whole, on cells
T4 sequence (Q62351 whole entry): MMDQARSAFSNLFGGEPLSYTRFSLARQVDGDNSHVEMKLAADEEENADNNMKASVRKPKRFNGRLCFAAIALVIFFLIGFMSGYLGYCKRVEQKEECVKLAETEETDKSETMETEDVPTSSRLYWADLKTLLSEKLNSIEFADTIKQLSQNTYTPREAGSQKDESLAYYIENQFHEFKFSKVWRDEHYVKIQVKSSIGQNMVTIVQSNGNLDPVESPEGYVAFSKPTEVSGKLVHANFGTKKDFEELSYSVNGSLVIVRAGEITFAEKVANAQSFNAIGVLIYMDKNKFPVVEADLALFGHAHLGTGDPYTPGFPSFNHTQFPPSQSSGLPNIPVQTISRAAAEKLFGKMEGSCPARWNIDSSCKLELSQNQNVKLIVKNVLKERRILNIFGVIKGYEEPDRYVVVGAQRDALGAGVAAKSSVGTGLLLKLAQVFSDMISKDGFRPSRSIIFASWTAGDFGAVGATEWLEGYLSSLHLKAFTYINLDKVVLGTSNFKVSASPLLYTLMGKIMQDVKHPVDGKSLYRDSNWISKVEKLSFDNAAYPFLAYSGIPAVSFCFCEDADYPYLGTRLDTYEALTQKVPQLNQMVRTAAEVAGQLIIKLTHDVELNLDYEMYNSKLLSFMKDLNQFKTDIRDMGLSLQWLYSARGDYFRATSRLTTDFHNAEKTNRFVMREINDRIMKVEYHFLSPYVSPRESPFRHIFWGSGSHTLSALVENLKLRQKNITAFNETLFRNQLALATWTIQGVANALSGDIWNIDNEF
Experimental: as §3, §4

B1: BBB00515 (VHH)
VHH: QVQLQESGGGLVQAGGSLRLSCAASGSIFSINAMGWYRQAPGKQRELVAVITSGGSTIYADSVKGRFTISRDNAENTVYLQMNSLKPEDTAVYYCNAHVGLKVPTIQELSLGFGSWGQGTQVTVSS
notes: Lead VHH expressed in E. coli TG1 and purified by IMAC; detected with anti-FLAG antibody in flow cytometry; also called BBB00515 VHH; not shown: C-terminal 3xFlag/6xHis tag from expression vector pBDS119
[1]
  Kd: 1180 nM
[2]
  Kd: 63 nM
[3]
  koff: 0.0137 s⁻¹
  kon: 15000 M⁻¹ s⁻¹
[4]
  EC50 (read off the curve): ~50 nM
[5]
  binding result: no binding (tested: Log10 Conc 3.5 (about 3000 nM))

B2: BBB00533 (VHH)
VHH: QVQLQESGGGSVQPGGSLRLSCTASGRTFNYAMGWFRQAPGKNREFVATIDWKDGSSYYLDSVRGRFTIERDDAKNTVYLQMNSLKPEDAAVYTCAVGDGDYCSTYTCAAEVEYDYWGQGTQVTVSS
notes: Lead VHH expressed in E. coli TG1 and purified by IMAC; detected with anti-FLAG antibody in flow cytometry; also called BBB00533 VHH; not shown: C-terminal 3xFlag/6xHis tag from expression vector pBDS119
[1]
  Kd: 207 nM
[2]
  Kd: 104 nM
[3]
  koff: 0.00592 s⁻¹
  kon: 29000 M⁻¹ s⁻¹
[4]
  EC50 (read off the curve): ~50 nM
[5]
  binding result: no binding (tested: Log10 Conc 3.5 (about 3000 nM))
